Data on one molecule can be found in paper PMC5849677 (2018).

What all share (test): SPR
One assay deals with hC3dg (aa 955-1303)-Fc (human, UniProt P01024 955-1303).
The target of assay [1] is hC3d(s)-Fc (Cys to Ser variant of hC3d-Fc) (human, UniProt P01024 1001-1303).
The target in assay [2] is native hC3d (containing 9th cysteine)-Fc (human, UniProt P01024 1001-1303).
Sequence of native hC3d (containing 9th cysteine)-Fc (P01024 1001-1303): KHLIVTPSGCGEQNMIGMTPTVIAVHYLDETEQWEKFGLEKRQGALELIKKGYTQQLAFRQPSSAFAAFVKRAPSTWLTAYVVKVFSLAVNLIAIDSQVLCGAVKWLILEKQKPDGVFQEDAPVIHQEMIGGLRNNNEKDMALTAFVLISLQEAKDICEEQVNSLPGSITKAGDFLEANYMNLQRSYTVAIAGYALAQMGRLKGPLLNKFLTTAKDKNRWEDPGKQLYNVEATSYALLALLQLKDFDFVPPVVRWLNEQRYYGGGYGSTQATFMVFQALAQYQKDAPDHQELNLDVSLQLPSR

Sequence of hC3d(s)-Fc (Cys to Ser variant of hC3d-Fc) (P01024 other isoform, or with tags, fused parts or gaps mutant): as the sequence (P01024 1001-1303) above, with C10S counted along it
Sequence of hC3dg (aa 955-1303)-Fc (P01024 955-1303): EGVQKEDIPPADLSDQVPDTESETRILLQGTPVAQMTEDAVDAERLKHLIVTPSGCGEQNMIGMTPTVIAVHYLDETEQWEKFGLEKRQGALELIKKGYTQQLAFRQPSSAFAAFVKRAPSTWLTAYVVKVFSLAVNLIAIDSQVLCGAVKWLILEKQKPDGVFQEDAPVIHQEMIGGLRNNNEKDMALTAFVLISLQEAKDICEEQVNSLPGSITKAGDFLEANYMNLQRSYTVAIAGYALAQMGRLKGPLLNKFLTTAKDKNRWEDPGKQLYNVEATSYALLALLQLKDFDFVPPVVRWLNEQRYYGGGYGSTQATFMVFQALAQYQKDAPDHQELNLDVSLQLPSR

B1: hCR2 (SCR1-4)-Fc (Fc fusion)
chain: ISCGSPPPILNGRISYYSTPIAVGTVIRYSCSGTFRLIGEKSLLCITKDKVDGTWDKPAPKCEYFNKYSSCPEPIVPGGYKIRGSTPYRHGDSVTFACKTNFSMNGNKSVWCQANNMWGPTRLPTCVSVFPLECPALPMIHNGHHTSENVGSIAPGLSVTYSCESGYLLVGEKIINCLSSGKWSAVPPTCEEARCKSLGRFPNGKVKEPPILRVGVTANFFCDEGYRLQGPPSSRCVIAGQGVAWTKMPVCEE
The Kd is a measure of binding affinity in units of concentration. Low readings indicate tighter binding, high ones weaker binding. For the molecule B1, the figures for the Kd (with hC3dg (aa 955-1303)-Fc; in assay [1]; in assay [2]) were 3.17 nM, 7.66 nM and 5.18 nM, respectively.
